Laboratory results published in the MegaScale stability set (Tsuboyama et al. 2023).

B1: EHEE_rd3_0053 (parent)
chain: TYTFKVDNKDQAKKAAKWAKKLGLSFQIEKHGDTFKITVQ

Variants of: B1
Assay: folding stability dG (cDNA display proteolysis); higher = more stable
Conditions: PBS, room temperature

Folding stability dG [kcal/mol], by site and new letter:
K30: V 2.21, N 1.88, E 2.04, G 1.57, F 1.91, W 1.64, H 1.91, R 2.5, D 1.84, M 2.16, Y 1.92, T 2.04, P 2.09, A 2.21, S 2.03, L 1.98, I 2.15, Q 2.48
F35: A 0.298, R 0.294, S -0.159, M 1.31, Q 0.075, H 0.715, G -0.794, I 1.85, L 1.49, Y 2.75, C 1.93, T 0.632, N -0.413, W 2.75, K -0.99, V 1.16
W18: Y 1.61, Q 1.17, T 1.1, R 1.5, L 1.77, I 1.72, S 0.747, V 1.36, M 1.68, N 0.859, K 1.45
K20: V 1.98, G 1.54, M 2.34, D 1.48, E 2.02, L 2.28, I 2.24, R 2.45, H 2.01, Q 2.3, T 2.24, P -0.72, N 1.83, S 2.08, C 2.67, Y 2.13, W 2.14, A 2.29, F 2.07
T34: G 3.12, R 2.41, P -0.409, L 2.36, F 2.79, Q 2.81, A 2.64, V 2.71, D 1.89, H 2.92, M 2.59, S 2.61, I 2.68, E 2.4, N 2.28, Y 2.92, K 2.65, W 2.72
G23: T 0.657, E 1.08, P -0.809, A 1.23, Y 1.1, W 0.761, V 0.722, C 1.62, R 1.66, F 1.3, N 1.97, I 0.784, L 1.24, M 1.59, K 1.85, H 1.79, S 1.42, Q 1.52, D 1.02
G32: S 1.31, D 1.85, K 1.77, R 1.58, L 1.7, V 1.19, T 0.996, Q 1.76, W 1.31, C 1.78, F 1.65, P 0.72, E 2.03, A 1.64, Y 1.59, I 1.21, H 1.61, M 1.7, N 1.96
L24: Q 0.563, V 1.4, W 2.04, G 0.159, T 0.294, D -0.587, F 2.2, K 1.32, M 2.11, I 1.73, S 0.343, E -0.483, H 1.31, A 1.01, Y 2.33, N 0.22, R 1.15
K21: A 2.41, G 2.12, R 2.49, E 2.02, S 2.43, N 2.17, D 1.89, T 2.16, V 1.89, Q 2.24, F 1.98, Y 2.02, I 1.99, W 2.19, P -0.644, M 2.4, L 2.15, H 2.16
I28: Y 1.33, T 0.849, A 1.42, G -0.457, H 0.125, W 1.53, L 1.84, F 1.47, N -0.243, S 1.26, V 2.23, R 0.785, K 1.06, M 2.15, Q 0.977, E 0.501
A19: H 0.465, V 1.47, Y 2.32, W 1.23, N -0.253, L 3.38, G 0.902, I 2.44, E -0.425, Q -0.184, R -0.112, P -0.671, F 2.84, K -0.645, T 0.316, M 2.79, S 0.85
S25: Q 2.37, M 2.29, H 2.29, Y 2.18, W 2.38, I 2.43, R 2.4, G 1.89, P 1.97, V 2.42, E 2.21, L 2.39, T 2.45, D 2.18, K 2.46, A 2.36, F 2.31, N 2.36
F26: P 0.848, M 2.05, G -0.311, W 1.88, Q -0.496, S 1.03, L 2.13, T 1.34, A 1.81, V 2.54, Y 2.29, N -0.442, C 2.68, I 2.64, H 1.02
H31: N 2.42, Q 2.65, A 2.41, M 2.68, C 3.09, E 2.93, G 1.34, K 2.14, Y 2.45, F 2.55, T 2.66, W 2.41, S 2.45, I 2.89, R 2.08, P 0.239, D 2.97, V 2.87, L 2.59
Q27: W 2.62, C 2.84, D 1.9, V 2.62, G 1.53, F 2.6, E 2.22, L 2.42, A 2.31, I 2.67, R 2.61, T 2.71, H 2.52, S 2.61, Y 2.58, M 2.54, K 2.64, N 2.29
K36: I 3.28, Y 3.17, L 3.18, V 3.14, W 3.32, M 2.94, D 1.65, Q 2.66, H 2.66, S 2.52, N 2.16, G 1, F 3.18, E 2.45, T 2.88, A 2.28, R 2.53
E29: M 2.05, C 2.64, I 2.24, V 2.43, G 1.19, H 2.01, A 2.06, K 2.07, Q 2.19, Y 1.95, F 1.95, W 2, R 2.11, L 1.89, N 1.77, S 2.27, T 2.48, D 1.93
L22: T 1.41, M 2.54, S 1.56, V 1.78, Q 2.14, I 1.76, Y 2.3, F 2.08, W 2.21, R 2.63, C 3.29, H 2.6, N 2.32, E 1.46, D -0.31, G 0.897, A 2.08, K 2.44
D33: V 1.95, T 2.37, Y 1.8, G 2.23, W 1.76, F 2, P 2.12, H 2.1, Q 2.16, K 2.35, A 2.18, S 2.33, E 2.38, R 2.11, I 1.91, M 2.1, N 2.45, L 2.14
I37: L 1.47, F 2.15, A 0.507, M 1.51, V 2.35
